According to paper PMC5612765:

How the values were obtained:
[1] = test system: T1, Fis (His-tagged) (Pseudomonas putida), ORF:eb421da7; test: EMSA with competition; conditions: EMSA: 24 mM Tris/HCl pH 7.5, 50 mM KCl, 10 mM MgCl2, 1 mM CaCl2, 0.1 mM EDTA, 5% glycerol, 0.05 ug/ul BSA, 0.05 ug/ul salmon sperm DNA, 20 min room …
T1 sequence: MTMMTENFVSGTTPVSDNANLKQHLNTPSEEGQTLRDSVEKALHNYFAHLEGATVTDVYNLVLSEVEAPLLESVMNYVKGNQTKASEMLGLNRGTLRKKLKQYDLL

[2] = test system: T1, Fis (His-tagged) (Pseudomonas putida), ORF:eb421da7; test: DNase I footprinting; conditions: EMSA: 24 mM Tris/HCl pH 7.5, 50 mM KCl, 10 mM MgCl2, 1 mM CaCl2, 0.1 mM EDTA, 5% glycerol, 0.05 ug/ul BSA, 0.05 ug/ul salmon sperm DNA, 20 min room …

TTTGGATCCGAGTCACAAGCAGCTATGTGTCGCAAATCAAAGAGATGACCGACGAGTGCGTGAATAATGGTATCCCGATCATTGAAAATCGCTTGCGGATATTGAATGCAAGAAGGCAAGAATCCGCACTCTATACACGTAGGCCGACTAACAAGCCACAGATATGCGCCAACAAACCAGCGCCTGTTTACTGACAGTGACTAAGCTGGAACCCAAAGCCCTTGCATGAATTCAA (double strand) [Fis-A5-Fis-A6mut fragment]
binding [1]: binds more weakly

TGCTGATAAGGGTTATCACGCCCTGGTGCTGGAGCAGCTGGCCAATGTTCGCCTTGAATCGGTGTTGAGTAAACAATTCTACGTGCTTCATTTTCACCAGACTTAGCGGGGCAATGATTCTGACAGGCCTGATCCAGCCATCATCCGGCTTGTTGCAGCATAGCCTGCCACTCAGCCAAGGCATGCAAGGGCTTTGGGTTCCAGCTTAGTCACTGTCAGTAAACAGGCGCTGGATCCA (double strand) [Fis-A7mut fragment]
binding [1]: binds more weakly

AGGATCCGAAACGCTTGGCTAAGGTACAAATATCAATGTGACATTACATTGCCGATTGTTTAGGATGGCATGTATAAGCTGAATAGTTTGGAGGTCAGGCAATTCCAAAAAGTTATAGACGGAATATTGACGTCAAAAACGTCAAGAGATCATCGACATAGTTCCGCCTGAAGTGGCTAGCAAGCGCCGCTCTGGCAGGGAAGTACC (double strand) [Fis-A1-Fis-A2mut fragment]
binding [1]: binds more weakly

GGTACTTCCCTGCCAGAGCGGCGCTTGCTAGCCACTTCAGGCGGAACTATGTCGATGATCTCTTGACGTTTTTGACGTCAATATTCCGTCTATAACTTTTTGGAATTGCCTGACTGCCAAACTATTGACCTTATACATGCCATCCTAAACAATCGGCAATGTAATGTCACATTGATATTTGTACCTTAGCCAAGCGTTTCGGATCCT (double strand) [lapA Fis-A1/Fis-A2 fragment WT]
binding [2]: binds
binding [1]: binds

AGGATCCGAAACGCTTGGCTAAGGTACAAATATCAATGTGACATTACATTGCCGATTGTTTAGGATGGCATGTATAAGGTCAATAGTTTGGCAGTCAGGCAATTCCAAAAAGTTATAGACGGAATATTGACGTCACCCACGTGCCGAGATCATCGACATAGTTCCGCCTGAAGTGGCTAGCAAGCGCCGCTCTGGCAGGGAAGTACC (double strand) [Fis-A1mut-Fis-A2 fragment]
binding [1]: binds more weakly

TGCTGATAAGGGTTATCACGCCCTGGTGCTGGAGCAGCTGGCCAATGTTCGCCTTGAATCGGTGTTGAGTAAACAATTCTACGTGCTTCATTTTCACCAGACTTAGCGGGGCAATGATTGTTTCATTTTTGATCCAGCCATCATCCGGCTTGTTGCAGCATAGCCTGCCACTCAGCCAAGGCATGCAAGGGCTTTGGGTTCCAGCTTAGTCACTGTCAGTAAACAGGCGCTGGATCCA (double strand) [lapA Fis-A7 fragment WT]
binding [2]: binds
binding [1]: binds

TTTGGATCCGAGTCACAAGCAGCTATGTGTCGCAAATCAAAGAGATGACCGACGAGTGCGTGAATAATGGTATCCCGATCATTGAAAATCGCTTGCGGAGGCTGACTGGGAGAAGGCAAGAATCCGCACTCTATAGATGAATTTTGACTAACAAGCCACAGATATGCGCCAACAAACCAGCGCCTGTTTACTGACAGTGACTAAGCTGGAACCCAAAGCCCTTGCATGAATTCAA (double strand) [Fis-A5mut-Fis-A6 fragment]
binding [1]: binds more weakly

TTGAATTCATGCAAGGGCTTTGGGTTCCAGCTTAGTCACTGTCAGTAAACAGGCGCTGGTTTGTTGGCGCATATCTGTGGCTTGTTAGTCAAAATTCATCTATAGAGTGCGGATTCTTGCCTTCTTGCATTCAATATCCGCAAGCGATTTTCAATGATCGGGATACCATTATTCACGCACTCGTCGGTCATCTCTTTGATTTGCGACACATAGCTGCTTGTGACTCGGATCCAAA (double strand) [lapA Fis-A5/Fis-A6 fragment WT]
binding [2]: binds
binding [1]: binds
